Measurements as given in patent publication CN113150157A.

Assays:
[1] = molecular target: 人成纤维细胞生长因子2(FGF2) (human) (UniProt P09038); assay: sandwich chemiluminescence immunoassay, AntiVEGF_C capture and AntiVEGF_N-HRP detection, FGF2 at 20μg/ml; apparent VEGF concentration
表皮生长因子(EGF) [2] = molecular target: 表皮生长因子(EGF) (UniProt P01133); assay: sandwich chemiluminescence immunoassay, AntiVEGF_C capture and AntiVEGF_N-HRP detection, EGF at 30ng/ml; apparent VEGF concentration
[3] = molecular target: 人成纤维细胞生长因子2(FGF2) (human) (UniProt P09038); assay: sandwich chemiluminescence immunoassay, AntiVEGF_C capture and AntiVEGF_N-HRP detection, FGF2 at 20μg/ml (specificity test)
表皮生长因子(EGF) [4] = molecular target: 表皮生长因子(EGF) (UniProt P01133); assay: sandwich chemiluminescence immunoassay, AntiVEGF_C capture and AntiVEGF_N-HRP detection, EGF at 30ng/ml (specificity test)

UniProt P01133, sequence (P01133 971-1023 limits assumed): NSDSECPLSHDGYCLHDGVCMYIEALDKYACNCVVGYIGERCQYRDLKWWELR
UniProt P09038, sequence (P09038 143-288 limits assumed): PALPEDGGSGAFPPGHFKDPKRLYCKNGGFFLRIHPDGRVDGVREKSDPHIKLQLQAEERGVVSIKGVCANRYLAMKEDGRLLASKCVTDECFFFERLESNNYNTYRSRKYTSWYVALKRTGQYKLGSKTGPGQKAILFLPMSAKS

浓度值 (检测表观值) [1]: 11.3 pg/mL
浓度值 (检测表观值) (表皮生长因子(EGF) [2]): 6.57 pg/mL
发光值 [3]: 14900 RLU
发光值 (表皮生长因子(EGF) [4]): 8770 RLU
B1: 单克隆抗体AntiVEGF_C (antibody, V domains shown)
VH: EVQLVESGGGLVQPGGSRKLSCAASGFTFSSFGMHWVRQAPEKGLEWVAFINSDSSAFYYADTVQDRFTISRDNPKNTLFLQMTSLRSEDTAMYYCARAGNHYYGGAYWGQGTLVTVSA
VL: QIVLSQSPAILSASPGEKVTMTCRASSSVSYMHWYQQRPGSSPKPWIYDTSNLASGVPVRFSGSGSGTSYSLTISRVEVEDAATYYCQQWSRHPPITFGSGTKLEIK
